For this test, the target named is PggH (phosphoguanylyl guanylate hydrolase), VCA0593 of Vibrio cholerae (Vibrio cholerae El Tor N16961). Nature of the test: SEC. Background: Size exclusion chromatography separates by hydrodynamic size, large species first.

As usually defined, the stoichiometry N is the number of molecules, sites or subunits per partner or assembly. Substance “PggH (phosphoguanylyl guanylate hydrolase), VCA0593 of Vibrio cholerae (enzyme)” registered a stoichiometry N of 2.

For the origin of these results see article PMC8861645.
